Source: patent US20220119522A1 (DENALI THERAPEUTICS, published 2022)
Changes are numbered by the printed parent chain. One block for each binder: values may come before it. No end group written: not given here.

Columns and labels:
[1] = molecular target: T1, human TREM2 full length stalk region peptide (aa 129-172) (human, biotinylated (site not stated)); assay: ELISA on biotinylated peptide captured by streptavidin; A450 normalised to isotype control
T1 construct: also called Human TREM2 peptide (aa 129-172); full-length TREM2 stalk peptide
T1 peptide: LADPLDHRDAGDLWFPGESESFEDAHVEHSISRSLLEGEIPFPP
Experimental: (§1) TREM2 antibodies were evaluated for binding to human and mouse TREM2 stalk region peptides. […] Antibody binding to TREM2 stalk peptides was detected using standard sandwich ELISA. Briefly, a 96-well half-area ELISA plate was coated with streptavidin overnight at 4° C. The following day, biotinylated TREM2 stalk peptides diluted in 1% BSA/PBS were added to the plate and incubated for 1 hour. Antibodies diluted in 1% BSA/PBS were then added and incubated for 1 hour. Antibodies bound to peptide were detected with anti-human kappa-HRP secondary antibody (Bethyl Laboratories, Inc.) diluted in 1% BSA/PBS. Plates were assayed by reaction with a detection reagent (One-step TMB Ultra, Thermo) and measurement of absorbance at 450 nm (A450) by standard spectrophotometry instrumentation (BioTek®). Data are shown as normalized values (fold over background where background=isotype control).

[2] = molecular target: T2, human TREM2 truncated stalk peptide (aa 149-163) (human, also: biotinylated (site not given here)); assay: as above
T2 construct: also called Human TREM2 peptide (aa 149-163); truncated stalk peptide containing the ADAM10/17 cleavage site
T2 peptide: SFEDAHVEHSISRSL
Experimental: as §1

[3] = molecular target: T3, mouse TREM2 full length stalk region peptide (aa 131-169) (mouse, UniProt Q99NH8 131-169, biotinylated (site not stated)); assay: as above
T3 peptide (looked up): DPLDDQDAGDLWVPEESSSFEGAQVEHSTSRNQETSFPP
Experimental: as §1

[4] = molecular target: T4, human TREM2 on the cell surface (human, UniProt Q9NZC2 19-230); assay: cell-based or functional assay
T4 sequence: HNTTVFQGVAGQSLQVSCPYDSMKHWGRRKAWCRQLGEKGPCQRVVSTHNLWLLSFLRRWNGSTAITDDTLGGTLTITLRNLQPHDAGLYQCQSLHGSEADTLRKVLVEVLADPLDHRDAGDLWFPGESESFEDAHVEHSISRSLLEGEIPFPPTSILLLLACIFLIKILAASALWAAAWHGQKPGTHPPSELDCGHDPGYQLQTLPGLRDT

[5] = molecular target: T4, human TREM2 on the cell surface; assay: cell binding, human macrophages, dose titration
[6] = molecular target: T5, His-tagged human TREM2 ECD (human, UniProt Q9NZC2 19-172); assay: SPR (Biacore), antibody captured via anti-human Fab, recombinant TREM2 ECD injected, 1:1 fit
T5 construct: Biacore and HDX say only recombinant human TREM2 (ECD); also called recombinant human TREM2; hTREM2
T5 sequence: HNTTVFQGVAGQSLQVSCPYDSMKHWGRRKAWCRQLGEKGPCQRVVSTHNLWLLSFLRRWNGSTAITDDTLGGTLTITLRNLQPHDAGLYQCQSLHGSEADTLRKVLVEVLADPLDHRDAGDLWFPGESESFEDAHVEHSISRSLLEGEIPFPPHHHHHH
Experimental: Surface plasmon resonance (Biacore™ 8K instrument) was used to measure anti-TREM2 antibody affinities for human and cynomolgus TREM2 ECD. Anti-TREM2 antibodies were captured using Human Fab Capture Kit (GE Healthcare Life Sciences, Catalog No. 28958325) on a Biacore Series S CM5 sensor chip (GE Healthcare Life Sciences, Catalog No. 29149604). Serial 3-fold dilutions of recombinant human or cynomolgus TREM2 were injected at a flow rate of 30 μL/min. Antibody binding was monitored for 300 seconds, followed by monitoring of antibody dissociation for 600+seconds in HBS-EP+ running buffer (GE Healthcare Life Sciences, Catalog No. BR100669). The binding response was corrected by subtracting the RU value from a blank flow cell. A 1:1 Languir model of simultaneous fitting of kₒₙ and koff was used for kinetics analysis.

B2: CL0020215 (antibody, V domains shown)
VH: QVQLQQPGAELVKPGASVKMSCKASGYTFTNYWIMWVKQRPGQGLEWIGDIYPSSGSTNYNEKFKNRATLTVDTSSNTAYMQLSSLTSEDSAVYFCSREGYGISAWGQGTTLTVSS
VL: QIVLTQSPAIMSASPGEKVTITCSASSSVSYMHWFQQKPGTSPKLWIYSTSNLASGVPARFSGSGSGTSCSLTISRMEAEDAATYYCQQRSSFPLTFGAGTKLELK
notes: also called Clone CL0020215
- fold over background (A450) [1]: 1.2 fold
- fold over background (A450) [2]: 1.1 fold
- fold over background (A450) [3]: 1.1 fold

B3: CL0020111 (antibody, V domains shown)
VH: B2 VH with E10D, M35T, K38Q, S54G, S57N, K65R, N66S, R67K, F95Y
VL: B2 VL with I10F, S24R, Y48F, C70H, S92G, F93Y
notes: also called Clone CL0020111
- fold over background (A450) [1]: 1.3 fold
- fold over background (A450) [2]: 1.6 fold
- fold over background (A450) [3]: 1.1 fold

B4: CL0020096 (antibody, V domains shown)
VH: QIQLVQSGPELRKPGETVKISCKASGYTFTTYGMSWVKQAPGKGLKWMGWINTYSGLPRHSDDFKGRFAFSLETSASTAYLQINNLKNEDTATYFCAREVYYGSRKTAWFAYWGQGTLVTVSA
VL: DLVMSQSPSSLAVSVGERVTMSCKSSQSLLYSNDQKNYLAWYQQIPGQSPKLLIYWASTRESGVPDRFTGSGSGTDFTLTISSVKAEDLAVYFCQQYYSYPPTFGAGTKLELK
notes: also called Clone CL0020096
- NFAT EC50 (nM), plate coated mAb [4]: 16.2 nM
- Survival EC50 (nM), plate coated mAb, human macrophages [4]: 1.8 nM
- pSyk activation (human macrophages) EC50 (nM) [4]: 30.9 nM
- EC50 [5]: 14 nM
- fold over background (A450) [1]: 45 fold
- fold over background (A450) [3]: 45 fold
- Kd [6]: 5.54 nM

B7: CL0020162 (antibody, V domains shown)
VH: QIQLVQSGPELKKPGESLKISCKASGYTFTDYAMQWVKQAPEKGLQYMGWINTQTGKPTYADDFKERFVFSLETSATTAYLQINNLKNEDMATYFCVRSYNNYENWFAYWGQGTLVTVSS
VL: DIVMTQSPSSLAVSAGETVTINCKSSQSLLYSGNQKNYLAWYQQKPGQSPKVLIYWASTRQFGVPDRFIGSGSGTDFTLTISSVQAEDLAIYYCQQYYNSPITFGSGTKLEIK
notes: also called Clone CL0020162
- fold over background (A450) [1]: 49 fold
- fold over background (A450) [2]: 1.3 fold
- fold over background (A450) [3]: 10 fold

B9: CL0020141 (antibody, V domains shown)
VH: EVTLVESGGGLVQPGGSLRLSCATSGFTFTDYYMSWVRQPPGKALEWLGFIRDKANGYTTDYSASVKGRFTISRDNSQNILYLQMNTLRAEDSATYYCSRLLRAQGFAYWGQGTLVTVSA
VL: DIVMSQSPSSLGVSIGEKVIMSCTSGQSLLYSNNQKNYLAWYQQKPGQSPKLLIYWASTRESGVPDRFTGSGSGTDFTLTINSVKAEDLAVYYCQQYYRNPFTFGSGTKLEIK
notes: also called Clone CL0020141
- NFAT EC50 (nM), plate coated mAb [4]: 25.5 nM
- Survival EC50 (nM), plate coated mAb, human macrophages [4]: 2 nM
- pSyk activation (human macrophages) EC50 (nM) [4]: 5.9 nM
- EC50 [5]: 0.6 nM
- fold over background (A450) [1]: 45 fold
- Kd [6]: 4.6 nM

B12: CL0020109 (antibody, V domains shown)
VH: EVQLQQSGPVLVKPGASLKMSCRASGYTFTDYYVHWVKQSHGKSLEWIGLINPYTGTTSYNQRFKGKATLTVDKSSSTAYMEVNSLTSEDSAVYYCARSRVYYGSSLFAFWGQGTLVTVSA
VL: DIVMTQSPSSLSVSAGEKVTMSCKSSQSLLNSGNQKNYLAWYQQKPGQPPKLLIYGASTRESGVPDRFTGSGSGTDFTLTISSVQAEDLAVYYCQNDHSYPYTFGGGTKLEIK
notes: also called Clone CL0020109
- fold over background (A450) [1]: 1.7 fold
- fold over background (A450) [2]: 1.5 fold
- fold over background (A450) [3]: 1.7 fold

B13: CL0020173 (antibody, V domains shown)
VH: EVKLLESGGGLVQPGSSMRLSCAASGFTFTDFYMNWIRQPAGRAPEWLGFFRNIVDGYTTEYNPSVKGRFTISRDNTQNMLYLQMNTLRAEDTATYYCARSGYSSYIYGGTFAYWGQGTLVTVSS
VL: ETVMTQSPTSMSTSIGERVTLNCKASQSVGIHVDWYQQTPGQSPKLLIYGASNRHTGVPDRFTGSGFGRDFTLTISNVEAEDLAVYYCLQYGSIPWTFGGGTKLELK
notes: also called Clone CL0020173
- fold over background (A450) [1]: 1.6 fold
- fold over background (A450) [2]: 1.2 fold
- fold over background (A450) [3]: 1.2 fold

Second part, the binder after the results:

- fold over background (A450) [1]: 1.4 fold
- fold over background (A450) [2]: 1 fold
- fold over background (A450) [3]: 1.2 fold
B1: CL0020161 (antibody, V domains shown)
VH: EVQLVESGGGLVQPGRSMKLSCAALGFTFSNYYMAWVRQAPRKGLEWVASISTGGDNTYYRDSVKGRFTISRDNAKSTLYMQMDSLRSEDTATYYCVRSFIVGTTGYYFDYWGQGVMVTVSS
VL: DIVLTQSPALAVSLGQRATISCKTNQNVDYYGNNYMHWYQQTPGQQPKLLIYFASNLASGIPARFSGRGSGTDFTLTIDPVEADDTATYYCQQSRNLPTFGGGTKLELK
notes: also called Clone CL0020161

- fold over background (A450) [1]: 56 fold
- fold over background (A450) [2]: 1.8 fold
- fold over background (A450) [3]: 4.1 fold
B5: CL0020103 (antibody, V domains shown)
VH: EVQLQQSGPELVKPGASVKISCKTSGYTFTEYTMHWVKESHGKSLEWIGGINPNKGGSSYNQKFKGKATLTVDKSSSTAYMDLRRLTSEDSAVYYCARGGYEYYALDYWGQGTSVTVSS
VL: B4 VL with L2I, A12T, N33R, D34N, I45K, T78S, F93Y, A106G, L112I
notes: also called Clone CL0020103

- fold over background (A450) [2]: 1.5 fold
- fold over background (A450) [3]: 1.6 fold
B6: CL0020124 (antibody, V domains shown)
VH: EVQLQQSGPVLVKPGASVKMSCKPSGYTFTDYYMNWVKQSHGKSLEWIGSINPYTGGSSYNQKFRGKATLTVDKSSSTAYMELNSLTSEDSAVYYCARGSYYSNLGFAYWGQGTLVTVSA
VL: DVQLTQSPSYLTASPGETITINCRASKSISKYLAWYQEKPGKTNKLLISSGSTLQSGIPSRFSGSGSGTDFTLTISSLEPEDFAMYYCQQYSEYPFTFGSGTKLEIK
notes: also called Clone CL0020124

- fold over background (A450) [1]: 50 fold
- fold over background (A450) [2]: 1.4 fold
- fold over background (A450) [3]: 51 fold
B8: CL0020164 (antibody, V domains shown)
VH: EVKLLESGGGLVQPGGSLRLSCAASGFTFTDFYMSWIRQPPGKAPEWLGVIRNKANGFTTEYNTSVKGRFTISRDYTQNILHLQTNTLRAEDTAIYYCARLTYGFDYWGQGVMVTVSS
VL: DIVMTQGALPNPVPSGESASITCQSSKSLLHSNGKTYLNWYLQRPGQSPQFLIYWMSTRASGVSDRFSGSGSGTDFTLKISSVEAEDVGVYYCQQFLELPFTFGSGTKLEIK
notes: also called Clone CL0020164

- fold over background (A450) [1]: 1.5 fold
- fold over background (A450) [2]: 1.3 fold
- fold over background (A450) [3]: 1.3 fold
B10: CL0020214 (antibody, V domains shown)
VH: QVRLQQSGAELVRPGSSVKLSCKASGYAFSSYWMNWVKQRPGQGLEWIGQIYPGDGDTNYNGNFKGKATLTADNSSSTAYMQLSSLTSEDSAVYFCARRRNGDFGDYAMDYWGQGTSVTVSS
VL: QIVLTQSPAIMSASPGEKVTISCSASSSVSYMCWYQQKPGSSPKPWIYRTSTLASGVPARFSGSGSGTSYSLTISSMEAADAATYYCQHYHSYPFTFGAGTKLELK
notes: also called Clone CL0020214

- fold over background (A450) [1]: 4.9 fold
- fold over background (A450) [2]: 1.3 fold
- fold over background (A450) [3]: 7 fold
B11: CL0020186 (antibody, V domains shown)
VH: EVQLVESGGGLVQPGRSLKLSCPASGFTFSYYGMAWVRQAPTKGLEWVASISTGGGNTYYRDSVKGRFTISRDNAKNTLYLQMDSLRSEDTATYYCARGDIGTAYWFTYWGQGTLVTVSS
VL: NIQLTQSPSLLSASVGDRVTLSCKGSQNINNYLAWYQQKLGEAPKLLIYKTNSLLTGIPSRFSGSGSGTDYTLTISSLHSEDLATYYCYQYNNGWTFGGGTKLELK
notes: also called Clone CL0020186
